One substance from publication PMC3937055 can be followed below.

For this test, the target named is caveolin, endogenous in mouse hippocampal primary neurons (mouse (endogenous in hippocampal primary neurons)) (UniProt P49817). In words: co-IP; competition: synthetic Tat peptides incubated with living hippocampal primary neurons for 45 min before lysis; anti-caveolin immunoprecipitate blotted for mGlu1 receptor, band intensity normalised to control (n=3).
UniProt P49817, sequence (P49817 whole entry): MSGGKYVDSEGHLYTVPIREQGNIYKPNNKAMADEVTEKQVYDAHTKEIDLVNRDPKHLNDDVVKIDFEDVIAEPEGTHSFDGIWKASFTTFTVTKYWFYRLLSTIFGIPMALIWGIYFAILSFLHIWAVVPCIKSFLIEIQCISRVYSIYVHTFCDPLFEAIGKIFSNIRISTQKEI

Take “Tat-blocking peptide (Tat peptide fused with caveolin binding site of mGlu1α receptor)”: the mGlu1α receptor co-precipitated with caveolin in the presence of the peptide, % of control was 73.3 % of control.
